Laboratory results: patent publication US20210032331A1 (PHANES THERAPEUTICS, published 2021)
Where a chain is given by its changes, count along the chain named.

T1: human LAG-3(ECD)-huFc (human, UniProt P18627 23-450)
T1 construct: also called Fc-tagged human LAG-3(ECD)-huFc; not shown: human Fc (huFc) at the C-terminus
T1 sequence: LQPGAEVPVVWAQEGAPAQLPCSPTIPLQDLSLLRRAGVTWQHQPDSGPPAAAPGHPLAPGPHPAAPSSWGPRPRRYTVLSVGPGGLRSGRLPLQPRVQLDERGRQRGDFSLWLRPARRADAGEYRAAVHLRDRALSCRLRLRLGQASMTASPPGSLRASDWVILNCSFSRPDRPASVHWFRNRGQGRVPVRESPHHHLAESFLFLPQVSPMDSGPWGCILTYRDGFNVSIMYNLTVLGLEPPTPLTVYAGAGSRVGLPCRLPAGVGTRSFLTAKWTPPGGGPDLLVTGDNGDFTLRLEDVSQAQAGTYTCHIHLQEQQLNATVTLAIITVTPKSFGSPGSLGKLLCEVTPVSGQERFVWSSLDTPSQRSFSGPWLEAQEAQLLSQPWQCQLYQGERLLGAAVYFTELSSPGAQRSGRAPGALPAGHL

T2: human LAG-3(ECD)-mFc (human, UniProt P18627 23-450)
T2 construct: also called hLAG3-mFc; human LAG-3 extracellular domain (ECD) fused to mouse Fc; not shown: mouse Fc
T2 sequence: T1 sequence

B1: B2 (antibody, V domains shown)
VH: QVHLQQSGPQLVKPGASVKISCKASGYTFTDYYINWVKQRPGQGLEWIGWIFPGSGSTYYNEKFKGKATLTVDKSSSTAYMLLSSLTSEDSAVYFCVRIHFDYDWFFDVWGTGTTVTVSS
VL: DVVMTQTPLSLPVSLGDQASISCRSSQSIVHSNGNTYFYWYLQKPGQSPNLLIYRVSNRFSGVPDRFSGSGSGTDFTLKISRVEAEDMGVYYCFQGTHVPYTFGGGTKLEIK
notes: Mouse mAb from hybridoma; also called mouse anti-LAG-3 mAb B2
B2: B13 (antibody, V domains shown)
VH: EVMLVESGGGLVKPGGSLKVSCAASGFTFSIYAMCWVRQTPEKRLEWVATISSGGSNTYYPDSVKGRFTISRDNAKNTLYLQMSSLRSEDTAVYYCARGDVYYDYDGRGFDYWGQGTTLTVSS
VL: DIVMTQSPSSLTVTAGEKVTMSCKSSQSLLNSGNQKNYLTWYQQKPGQPPKMLIYWASTRESGVPERFTGSGSGTDFTLTINSVQAEDMAIYYCQNDYGYPLAFGAGTRLELK
notes: Mouse mAb from hybridoma; also called mouse anti-LAG-3 mAb B13
B3: BG29 (human IgG4 heavy chain and kappa light chain chimeric) (antibody, V domains shown)
VH: QIQLQQSGPEVVKPGASVRISCKASGYTFSDYHINWVKQKPGQGLEWIGWIYPGRGDPEYNEKFKGKATLTVDRSASTAYMQLSSLTSEDTSVYFCEIYYGNYIDYWGQGTTLTVSS
VL: DIVMTQAAPSVPVTPGESVSISCRSSKSLLHSDGKTYLYWFLQRPGQSPQRLIYYMSNLASGVPDRFSGRGSGTDFTLRISRVEAEDVGVYYCMQSLEYPWTFGGGTKLEIK
notes: Chimeric: mouse VH and VL with human IgG4 heavy chain and kappa light chain constant regions; also called chimeric BG29
B4: B3 (antibody, V domains shown)
VH: QVQLQQPGAELLKPGASVKMSCKASGYTFTSYDIHWLKQTPGQGLEWIGAIYPENGDSSYSQKFKDKATLTADKSSNTAYIHLSSLTSEDSAVYYCARGGYYDYVWFPYWGQGTLVTVSA
VL: DVVMTQTPLSLPVSLGDQASISCRSSQSILYSNGYTYLEWYLQKPGQSPKLLIYGVSNRFSGVPDRFSGSGSGTDFTLKISRVESEDMGVYYCFQGTHVPLTFGAGTKLELK
notes: Mouse mAb from hybridoma; also called mouse anti-LAG-3 mAb B3
B5: B4 (antibody, V domains shown)
VH: B4 VH with D66G, Y102F
VL: B4 VL with L30V, S85A
notes: Mouse mAb from hybridoma; also called mouse anti-LAG-3 mAb B4
B6: B1 (antibody, V domains shown)
VH: DVQLQESGPGLVKPSQSLSLTCTVTGYSITSDYAWNWIRQFPGNKLEWMGYIDYSGITSYNPSLKSRISITRDTSKNQFFLQLNSVTTEDTATYYCAREDHYDLAWFAYWGQGTLVTVSA
VL: DIQMTQTTSSLSASLGDRVTISCRASQDISNYLNWYQQKPDGTVKLLIYYTSRLHSGVPSRFSGSGSGTDYSLTISNLEPEDIATYYCHQYSNRPPTFGGGTKLEIK
notes: Mouse mAb from hybridoma; also called mouse anti-LAG-3 mAb B1

Tests used:
human LAG-3(ECD)-huFc = target: T1, human LAG-3(ECD)-huFc; assay: SPR (Biacore): mAb from hybridoma supernatant captured on anti-mouse IgG CM5 chip, human LAG-3(ECD)-huFc 50-400 nM injected
Description: Anti-mouse IgG antibodies were immobilized via amine coupling on CM5 chip surface. Anti-LAG-3 mAbs in hybridoma supernatants were captured on the chip surface and a series of concentrations (50-400 nM) of human LAG-3(ECD)-huFc protein were injected and passed through the captured surface. The on and off rates for antibody-antigen binding were measured, curve fitted and calculated.

B5/IgG4 = target: T3, B5/IgG4; assay: ELISA peptide competition: peptide preincubated with B5/IgG4, competitor hLAG3-mFc; peptide at 600-fold hLAG3-mFc; capture on anti-human IgG, anti-mouse IgG-HRP
T3 construct: Chimeric: mouse VH and VL with human IgG4 heavy chain and kappa light chain constant regions; also called B5 (human IgG4 heavy chain and kappa light chain chimeric)
Description: (§1) FIGS. 5A-5D show the effect of competition peptides on LAG-3 binding to anti-LAG-3 mAbs. […] B5/IgG4 was preincubated with a competition peptide for 30 minutes. Then human LAG-3 extracellular domain (ECD) fused to mouse Fc (hLAG3-mFc) was added (the final peptide concentration was 600-fold that of hLAG3-mFc) and the mixture was incubated for 60 minutes before being added to an ELISA plate coated with anti-human IgG. The incubation was carried out at 4° C. overnight. After washing, the hLAG3-mFc bound to the immobilized B5/IgG4 on the ELISA plate was detected by adding anti-mouse IgG conjugated to horseradish peroxidase (HRP) and incubating for 60 minutes. Then, after washing, the ELISA was developed using One-step Detection Solution and measured as the absorbance at 450 nm.
(§2) Anti-human IgG in carbonate coating buffer was coated on an ELISA plate at 4° C. (50 μL/well at 1 μg/mL) overnight. In each well of a separate plate, a chimeric version of a given anti-LAG-3 mAb (50 μL/well at 1.4 nM) and a competition peptide (50 μL/well at various concentrations as indicated in the figures) were mixed and incubated for 30 minutes at room temperature. Then human LAG-3 extracellular domain (ECD) fused to mouse Fc (hLAG3-mFc) was added to each well (50 μL/well at 2 nM) and the final mixture was incubated at room temperature for 60 minutes before added to the ELISA plate (50 μL/well) for another 60-minute incubation. The final incubation after adding the mixture to the ELISA plate was also performed at 4° C. overnight in some assays. The plate was washed and the binding of hLAG3-mFc to the immobilized anti-LAG-3 mAb was detected by adding anti-mouse IgG conjugated to horseradish peroxidase ([…]) (ThermoFisher Scientific, Cat#: A16084; Waltham, Mass.) and incubating for 60 minutes.

B7/IgG4 = target: T4, B7/IgG4; assay: ELISA peptide competition: peptide preincubated with B7/IgG4, competitor hLAG3-mFc; peptide at 600-fold hLAG3-mFc; final incubation 60 min at room temperature; anti-mouse IgG-HRP
T4 construct: Chimeric: mouse VH and VL with human IgG4 heavy chain and kappa light chain constant regions; also called B7 (human IgG4 heavy chain and kappa light chain chimeric)
Description: B5/IgG4 was preincubated with a competition peptide for 30 minutes. Then human LAG-3 extracellular domain (ECD) fused to mouse Fc (hLAG3-mFc) was added (the final peptide concentration was 600-fold that of hLAG3-mFc) and the mixture was incubated for 60 minutes before being added to an ELISA plate coated with anti-human IgG. The incubation was carried out at 4° C. overnight. After washing, the hLAG3-mFc bound to the immobilized B5/IgG4 on the ELISA plate was detected by adding anti-mouse IgG conjugated to horseradish peroxidase (HRP) and incubating for 60 minutes. Then, after washing, the ELISA was developed using One-step Detection Solution and measured as the absorbance at 450 nm.
The assay condition is the same as in FIG. 5A except that the final incubation of the mAb, the competition peptide, and hLAG3-mFc on the ELISA plate was performed at room temperature for 60 minutes instead of incubation at 4° C. overnight.
Anti-human IgG in carbonate coating buffer was coated on an ELISA plate at 4° C. (50 μL/well at 1 μg/mL) overnight. In each well of a separate plate, a chimeric version of a given anti-LAG-3 mAb (50 μL/well at 1.4 nM) and a competition peptide (50 μL/well at various concentrations as indicated in the figures) were mixed and incubated for 30 minutes at room temperature. Then human LAG-3 extracellular domain (ECD) fused to mouse Fc (hLAG3-mFc) was added to each well (50 μL/well at 2 nM) and the final mixture was incubated at room temperature for 60 minutes before added to the ELISA plate (50 μL/well) for another 60-minute incubation.

[1] = target: T5, B12 (human IgG1 heavy chain and kappa light chain chimeric); assay: ELISA peptide competition: peptide preincubated with chimeric IgG1 B12, competitor hLAG3-mFc; peptide at 600-fold hLAG3-mFc; capture on anti-human IgG, anti-mouse IgG-HRP
T5 construct: Chimeric: mouse VH and VL with human IgG1 heavy chain and kappa light chain constant regions
T5 sequence (VH, as listed by the source): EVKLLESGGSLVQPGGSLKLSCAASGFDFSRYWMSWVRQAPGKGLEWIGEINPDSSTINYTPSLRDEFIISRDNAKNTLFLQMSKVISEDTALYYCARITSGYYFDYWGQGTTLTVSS
Description: as §1, §2

human LAG-3(ECD)-mFc = target: T2, human LAG-3(ECD)-mFc; assay: FACS blocking assay: mAb preincubated with LAG-3(ECD)-mFc (1 µg/mL), blocked ligand MHC class II on Daudi cells, PE anti-mouse Fc
Description: FIGS. 4A-4D show inhibition of human LAG-3 binding to MHC class II molecules by select anti-LAG-3 mAbs. An in vitro binding assay was performed using recombinant LAG-3(ECD)-mFc and Daudi cells which express human MHC class II molecules. […] The binding of LAG-3(ECD)-mFc to Daudi cells in the presence of anti-LAG-3 mAbs or a control mAb was analyzed by FACS.
Human Daudi cells were cultured in RPMI+10% FBS. Human LAG-3(ECD)-mFc protein (human LAG-3 ECD fused to mouse Fc) at 1 μg/ml final concentration was incubated with purified mouse, humanized, or chimeric anti-LAG-3 mAbs at various concentrations for 15 minutes at 4° C. The mixture was then added to 100,000 human Daudi cells in a 96-well round bottom plate, mixed and incubated for 15 minutes on ice. Cells were then centrifuged at 1,000 rpm for 5 minutes and washed with FACS buffer (PBS supplemented with 5% BSA) three times. The cells were then incubated with PE-conjugated goat anti-mouse Fc polyclonal antibodies on ice for 15 minutes, washed with FACS buffer three times and then resuspended in FACS buffer containing 0.1 μg/ml PI (propidine iodine) for live/dead cell gating. Cells were then run through the FACS Caliber instrument and the data were analyzed by the Flowjo software. Results of the inhibition of LAG-3 binding to Daudi cells by chimeric mAbs B1C, B3C, B4C, BSC, B9C, and B11C are shown in FIG. 4B.

Row | Binder | binding result (B5/IgG4) | binding result (B7/IgG4) | binding result [1] | also measured
1 | B1 | – | – | – | Kd (human LAG-3(ECD)-huFc): 4.09 nM
2 | PPAAAPGHPLA (also called peptide 2-12) [2-12] | binds | – | – | –
3 | PHPAAPSSWGPRP (also called peptide 15-27) [15-27] | – | binds | – | –
4 | PHPAAPSSWGPRPR (also called peptide 15-28) [15-28] | – | binds | – | –
5 | PDSGPPAAAPGHPLAP (also called peptide P16) [P16] | binds | – | binds | –
6 | B2 | – | – | – | Kd (human LAG-3(ECD)-huFc): 8.17 nM
7 | QPDSGPPAAAPGHPLAP (also called peptide Q17) [Q17] | binds | – | binds | –
8 | AAPSSWGPRPRRY (also called peptide 18-30) [18-30] | – | binds | – | –
9 | QPDSGPPAAAPGHPLA (also called peptide Q16) [Q16] | binds | – | binds | –
10 | DSGPPAAAPGHPLAP (also called peptide D15) [D15] | binds | – | binds | –
11 | B3 | – | – | – | IC50 (read off the curve) (human LAG-3(ECD)-mFc): ~1 nM
12 | APSSWGPRPRRY (also called peptide 19-30) [19-30] | – | binds | – | –
13 | PAAPSSWGPRPRRY (also called peptide 17-30) [17-30] | – | binds | – | –
14 | B4 | – | – | – | Kd (human LAG-3(ECD)-huFc): 1.53 nM
15 | B5 | – | – | – | Kd (human LAG-3(ECD)-huFc): 0.217 nM
16 | PHPAAPSSWGPRPRR (also called peptide 15-29) [15-29] | – | binds | – | –
17 | B6 | – | – | – | Kd (human LAG-3(ECD)-huFc): 1.21 nM
18 | GPPAAAPGHPLAPGPHPAA (also called peptide 1-19) [1-19] | – | – | binds | –
19 | SGPPAAAPGHPLAP (also called peptide S14) [S14] | binds | – | binds | –
